The record followed here is publication PMC4569726.

Assay [1] addresses RSV F single-chain triple mutant with fibritin trimerization domain (SC-TM: N67I, S215P, E487Q) (respiratory syncytial virus strain A2 (subgroup A) | not stated). Description: SEC-MALS + native gel or EMSA; purified protein; SEC-MALS: 40 μg on TSK-Gel G3000SWxl in 150 mM NaPi, 50 mM NaCl, pH 7.0; NativePAGE Bis-Tris gel. A general note: Size exclusion chromatography separates by hydrodynamic size, large species first.

The target in assay [2] is RSV F single-chain double mutant with fibritin trimerization domain (SC-DM: N67I, S215P) (respiratory syncytial virus strain A2 (subgroup A) | not stated). Described as above.
The target of assay [3] is Soluble, stabilized processed RSV F variant with fibritin motif (PR-TM: N67I, S215P, D486N) (respiratory syncytial virus strain A2 (subgroup A) | not stated). Nature of the assay: SDS-PAGE without reducing agents and without boiling, Western blot; samples treated with standard 0.1% SDS buffer at room temperature. (Immunoblotting shows a protein as a band on a membrane.)

The stoichiometry N is a count of units in the complex or per binding partner. Turning to “RSV F single-chain triple mutant with fibritin trimerization domain (SC-TM: N67I, S215P, E487Q) (domain or fragment)”, the stoichiometry N in assay [1] is 3.

In the case of “RSV F single-chain double mutant with fibritin trimerization domain (SC-DM: N67I, S215P) (domain or fragment)”, the stoichiometry N in assay [2] was 3. In assay [3], “Soluble, stabilized processed RSV F variant with fibritin motif (PR-TM: N67I, S215P, D486N) (domain or fragment)” registered a percent monomerized by 0.1% SDS of 50%.
